Target: CD122-Fc (UniProt P14784)
Experiment: SPR, construct immobilised, CD122-Fc flowed, after protease cleavage

Chain of CD122-Fc (P14784 27-239 limits assumed): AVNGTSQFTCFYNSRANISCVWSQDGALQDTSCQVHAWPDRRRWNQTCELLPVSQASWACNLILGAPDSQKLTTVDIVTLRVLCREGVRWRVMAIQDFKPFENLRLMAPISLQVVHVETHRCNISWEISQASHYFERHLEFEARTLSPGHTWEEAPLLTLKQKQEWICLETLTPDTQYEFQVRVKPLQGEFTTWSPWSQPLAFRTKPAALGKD

- Kd: 175 nM
B1: AK168 after protease cleavage (Fc fusion, from a related filing)
chain: LYHPSGPAPTSSSTKKTQLQLEHLLLDLQMILNGINNYKNPKLTAMLTAKFAMPKKATELKHLQCLEEALKPLEEVLNLAQSKNFHLRPRDLISNINVIVLELKGSETTFMCEYADETATIVEFLNRWITFAQSIISTLT

From patent US20230159603A1
